According to publication PMC7193609, “DNA replication machinery prevents Rad52-dependent single-strand annealing that leads to gross chromosomal rearrangements at centromeres”:

Target: T1, Rad52-6His-3Flag (wild type) (Schizosaccharomyces pombe (fission …, UniProt P36592 1-469))
T1 sequence: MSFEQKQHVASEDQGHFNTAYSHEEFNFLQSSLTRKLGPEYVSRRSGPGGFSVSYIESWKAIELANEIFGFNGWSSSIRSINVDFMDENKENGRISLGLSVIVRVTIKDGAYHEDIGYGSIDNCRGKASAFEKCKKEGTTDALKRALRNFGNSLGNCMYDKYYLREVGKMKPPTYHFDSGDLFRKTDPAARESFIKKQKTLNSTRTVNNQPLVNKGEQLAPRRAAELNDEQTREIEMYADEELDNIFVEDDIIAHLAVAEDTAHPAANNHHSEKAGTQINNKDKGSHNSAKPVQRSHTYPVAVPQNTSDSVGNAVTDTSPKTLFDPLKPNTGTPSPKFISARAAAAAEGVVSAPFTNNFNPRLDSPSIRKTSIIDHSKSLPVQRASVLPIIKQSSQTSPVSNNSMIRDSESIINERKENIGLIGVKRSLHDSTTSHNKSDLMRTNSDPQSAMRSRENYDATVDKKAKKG
Test: EMSA; 0-200 nM Rad52, 2 nM DNA; complexes retained in well; EMSA: 32 mM Tris-HCl pH 7.8, 40 mM KCl, 0.8 mM DTT, 0.08 mg/mL BSA, 30 °C, 10 min; 10% native PAGE in 1x TAE
Conditions: protein: recombinant; tags: C-terminal 6His-3Flag; label: 5'-32P; single strand, 48 nt

B1: Oligo211 (ssDNA)
DNA: GAAGCATTTATCAGGGTTATTGTCTCATGAGCGGATACATATTTGAAT
**Q.** Does B1 bind?
**A.** Result: binds
